Results on one molecule are retold here after PMC8274607, “A Derivative of the D5 Monoclonal Antibody That Targets the gp41 N-Heptad Repeat of HIV-1 with Broad Tier-2-Neutralizing Activity” (Journal of Virology, 2021).

The test concerns the target T1, covalent biotinylated CCIZN17 (synthetic IZ coiled coil fused to HIV-1 …).
T1 construct: also called NHR mimetic; mimetic of the NHR trimer
The test is described as follows: BLI; biotinylated CCIZN17 (200 nM) loaded on streptavidin biosensors to 0.4 nm, Octet RED96; Fab in solution at known concentrations, 4 min association, 4 min dissociation; PBS pH 7.4 with 0.1% BSA and 0.05% Tween 20. The conditions noted are these: both partners purified. Background: Biolayer interferometry detects binding as a change in optical thickness at a sensor tip.

B1: D5_AR Fab (Fab, V domains shown)
VH: QVQLVQSGAEVRKPGASVKVSCKASGDTFSSYAISWVRQAPGQGLEWMGSIIPLFGTAAYAQKFQGRVTITADESTSTAYMELSSLRSEDTAIYYCARDNPTFGAADSWGKGTLVTVSS
VL: DIQMTQSPSTLSASIGDRVTITCRASEGIYHWLAWYQQKPGKAPKLLIYKASSLASGAPSRFSGSGSGTDFTLTISSLQPDDFATYYCQQYSNYPLTFGGGTKLEIK
notes: also called D5_H011_L0; source: Expi293F, transfected, purified (protein G agarose, SEC)
The term Kd denotes the concentration at which binding is half-saturated. Regarding B1, the affinity, expressed as Kd, was 1.6 nM.
